Assay results reported in IntAct's records for PubMed 18432193.

B1: Protein draper (Drosophila melanogaster (Fruit fly)), Q9W0A0 (parent)
chain: MLPVILIACLAQLVLAQADLKDLDGPNICKRRELYNVDVVYTELQSFQERGSTWCVTFPPRCSTYRIKHRVVNKTKTIAKNRIVRDCCDGYIASAGECVPHCSEPCQHGRCISPEKCKCDHGYGGPACDINCPPGWYGRNCSMQCDCLNNAVCEPFSGDCECAKGYTGARCADICPEGFFGANCSEKCRCENGGKCHHVSGECQCAPGFTGPLCDMRCPDGKHGAQCQQDCPCQNDGKCQPETGACMCNPGWTGDVCANKCPVGSYGPGCQESCECYKGAPCHHITGQCECPPGYRGERCFDECQLNTYGFNCSMTCDCANDAMCDRANGTCICNPGWTGAKCAERICEANKYGLDCNRTCECDMEHTDLCHPETGNCQCSIGWSSAQCTRPCTFLRYGPNCELTCNCKNGAKCSPVNGTCLCAPGWRGPTCEESCEPGTFGQDCALRCDCQNGAKCEPETGQCLCTAGWKNIKCDRPCDLNHFGQDCAKVCDCHNNAACNPQNGSCTCAAGWTGERCERKCDTGKFGHDCAQKCQCDFNNSLACDATNGRCVCKQDWGGVHCETNCRSGYYGENCDKVCRCLNNSSCDPDSGNCICSAGWTGADCAEPCPPGFYGMECKERCPEILHGNKSCDHITGEILCRTGYIGLTCEHPCPAGLYGPGCKLKCNCEHGGECNHVTGQCQCLPGWTGSNCNESCPTDTYGQGCAQRCRCVHHKVCRKADGMCICETGWSGTRCDEVCPEGFYGEHCMNTCACPSANFQCHAAHGCVCRSGYTGDNCDELIASQRIADQSENSSRASVALTLVLMTLFACIIFAVFIYYRRRVSNLKTEIAHVHYTHDTNPPSWPPNHNFDNPVYGMQAETRLLPNNMRSKMNNFDQRSTMSTDYGDDCNASGRVGSYSINYNHDLLTKNLNADRTNPIVYNESLKEEHVYDEIKHKEGYKDPDEYDHLDYSRPSTSQKPHYHRMNDAMLNINQDEEKPSNVKNMTVLLNKPLPPTEPEPQHECFDNTNTNLDNVSTASPSSSPKFLK
partner: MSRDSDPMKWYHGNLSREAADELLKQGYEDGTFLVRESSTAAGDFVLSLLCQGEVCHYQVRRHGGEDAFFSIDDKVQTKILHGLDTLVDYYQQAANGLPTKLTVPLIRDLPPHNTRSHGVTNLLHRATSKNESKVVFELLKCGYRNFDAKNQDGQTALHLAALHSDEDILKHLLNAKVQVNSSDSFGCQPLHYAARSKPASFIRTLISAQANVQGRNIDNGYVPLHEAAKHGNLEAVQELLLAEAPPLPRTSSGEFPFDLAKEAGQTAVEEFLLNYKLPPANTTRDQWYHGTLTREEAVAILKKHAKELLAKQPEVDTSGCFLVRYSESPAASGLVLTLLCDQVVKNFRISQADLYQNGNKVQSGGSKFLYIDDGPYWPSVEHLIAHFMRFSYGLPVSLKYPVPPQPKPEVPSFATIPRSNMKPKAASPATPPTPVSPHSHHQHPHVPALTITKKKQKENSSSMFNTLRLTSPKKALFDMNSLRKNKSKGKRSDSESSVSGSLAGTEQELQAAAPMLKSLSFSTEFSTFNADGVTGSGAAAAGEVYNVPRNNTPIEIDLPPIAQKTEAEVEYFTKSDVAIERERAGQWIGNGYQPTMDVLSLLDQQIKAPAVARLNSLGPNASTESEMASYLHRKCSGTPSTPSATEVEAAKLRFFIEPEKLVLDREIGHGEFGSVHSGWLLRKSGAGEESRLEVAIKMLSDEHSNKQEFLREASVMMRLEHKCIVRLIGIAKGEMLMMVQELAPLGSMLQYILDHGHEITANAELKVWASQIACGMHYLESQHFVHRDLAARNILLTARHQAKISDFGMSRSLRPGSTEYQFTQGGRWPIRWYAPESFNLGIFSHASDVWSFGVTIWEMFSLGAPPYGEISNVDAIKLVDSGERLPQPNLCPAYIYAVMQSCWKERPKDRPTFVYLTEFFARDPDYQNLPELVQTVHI

Variants of: B1
Details: with shark_drome Shark

| effect of a mutation on the interaction | Variant |
| --- | --- |
| decreasing interaction | Y934F |
| disrupting interaction | Y949F |

Variants of: B1
Details: with shark_drome Shark
Remark: another data set of the same source

| effect of a mutation on the interaction | Variant |
| --- | --- |
| decreasing interaction | Y949F |
